These results are taken from patent US20170051041A1.

Common to all, as to experiment: SPR single-cycle kinetics; reference WT-FVIII-C2
Test [1] deals with FVIII-C2 mutein F2200A (human) (UniProt P00451).
The target in test [2] is FVIII-C2 mutein R2220A (human) (UniProt P00451).
Test [3] deals with FVIII-C2 mutein L2252A (human) (UniProt P00451).
Test [4] addresses FVIII-C2 mutein S2254A (human) (UniProt P00451).
For test [5], the target named is FVIII-C2 mutein Q2316A (human) (UniProt P00451).
Test [6] addresses FVIII-C2 mutein E2228A (human) (UniProt P00451).
For test [7], the target named is FVIII-C2 mutein H2315A (human) (UniProt P00451).

Chain of UniProt P00451 (P00451 2189-2351 F2219A): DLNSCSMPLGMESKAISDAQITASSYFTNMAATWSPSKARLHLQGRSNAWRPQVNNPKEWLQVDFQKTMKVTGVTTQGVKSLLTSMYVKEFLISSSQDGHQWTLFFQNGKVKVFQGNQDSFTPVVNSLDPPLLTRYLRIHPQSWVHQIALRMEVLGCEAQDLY
Chain of Fab fragment of human anti-FVIII mAb BO2C11 (VH): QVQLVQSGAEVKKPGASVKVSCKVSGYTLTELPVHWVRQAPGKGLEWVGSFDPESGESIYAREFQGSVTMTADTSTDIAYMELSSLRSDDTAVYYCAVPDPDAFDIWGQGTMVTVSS
Chain of Fab fragment of human anti-FVIII mAb BO2C11 (VL): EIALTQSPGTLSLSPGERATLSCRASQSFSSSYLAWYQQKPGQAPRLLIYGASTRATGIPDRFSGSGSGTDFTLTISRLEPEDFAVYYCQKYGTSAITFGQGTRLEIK

In turn, “Murine anti-FVIII C2 domain mAb 3D12 (antibody)” registered a kd(mutein)/kd(WT) in test [1] above 2 fold.
“Murine anti-FVIII C2 domain mAb ESH8 (antibody)” gave a kd(mutein)/kd(WT) in test [2] of 4.5 fold.
In test [1], “Fab fragment of human anti-FVIII mAb BO2C11” yielded a kd(mutein)/kd(WT) above 2 fold.
Take “Murine anti-FVIII C2 domain mAb 2-117 (GMA-8003) (antibody)”: the kd(mutein)/kd(WT) in test [2] was 3 fold.
In test [2], “Murine anti-FVIII C2 domain mAb ESH4 (antibody)” displayed a kd(mutein)/kd(WT) of 2.7 fold.
Consider “Murine anti-FVIII C2 domain mAb 1B5 (GMA-8008) (antibody)”, for which the kd(mutein)/kd(WT) in test [3], in test [4], in test [5], in test [1], in test [6] and in test [7] was above 2 fold in each case.
In test [1], “Murine anti-FVIII C2 domain mAb I109 (antibody)” returned a kd(mutein)/kd(WT) above 2 fold.
